From patent US20210388087A1 (Chugai, published 2021)
Numbering of substitutions follows the chain as printed. Numbers in names are those of the source.

T1: Human CD3eg linker (human)
T1 construct: Single chain: epsilon and gamma subunits of human CD3 joined by a 29-mer linker, Flag-tag at the C-terminus; also called recombinant human CD3
T1 chain: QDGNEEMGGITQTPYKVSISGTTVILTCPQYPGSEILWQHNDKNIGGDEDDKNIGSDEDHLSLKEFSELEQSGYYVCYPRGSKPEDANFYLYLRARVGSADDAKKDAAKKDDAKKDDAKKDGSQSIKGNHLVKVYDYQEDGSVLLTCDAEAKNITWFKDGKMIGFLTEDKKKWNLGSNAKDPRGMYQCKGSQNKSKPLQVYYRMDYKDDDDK

B1: H183/L072 VL S26A (antibody, name in Kabat numbering, V domains shown)
VH: QVQLVESGGGLVQPGRSLRLSCAASGFTFSNAWMHWVRQAPGKGLEWVAQIKDKGNAYAAYYAPSVKGRFTISRDDSKNSIYLQMNSLKTEDTAVYYCHYVHYASASTVLPAFGVDAWGQGTTVTVSS
VL: DIVMTQSPLSLPVTPGEPASISCQAAQELVHMNRNTYLHWYQQKPGQAPRLLIYKVSNRFPGVPDRFSGSGSGTDFTLKISRVEAEDVGVYYCAQGTSVPFTFGQGTKLEIK
notes: Dual-Ig
B2: H183/L072 VL A89D (antibody, name in Kabat numbering, V domains shown)
VH: B1 VH
VL: B1 VL with A26S, A94D
notes: Dual-Ig
B3: H183/L072 VL A25G (antibody, name in Kabat numbering, V domains shown)
VH: B1 VH
VL: B1 VL with A25G, A26S
notes: Dual-Ig
B4: H183/L072 VL A89E (antibody, name in Kabat numbering, V domains shown)
VH: B1 VH
VL: B1 VL with A26S, A94E
notes: Dual-Ig
B5: H183/L072 VL A25N (antibody, name in Kabat numbering, V domains shown)
VH: B1 VH
VL: B1 VL with A25N, A26S
notes: Dual-Ig
B6: H183/L072 VL A25L (antibody, name in Kabat numbering, V domains shown)
VH: B1 VH
VL: B1 VL with A25L, A26S
notes: Dual-Ig
B7: H183/L072 VL A25V (antibody, name in Kabat numbering, V domains shown)
VH: B1 VH
VL: B1 VL with A25V, A26S
notes: Dual-Ig
B8: H183/L072 VL A25Q (antibody, name in Kabat numbering, V domains shown)
VH: B1 VH
VL: B1 VL with A25Q, A26S
notes: Dual-Ig
B9: H183/L072 VL A25M (antibody, name in Kabat numbering, V domains shown)
VH: B1 VH
VL: B1 VL with A25M, A26S
notes: Dual-Ig
B10: H183/L072 VL A25T (antibody, name in Kabat numbering, V domains shown)
VH: B1 VH
VL: B1 VL with A25T, A26S
notes: Dual-Ig
B11: H183/L072 VL A25I (antibody, name in Kabat numbering, V domains shown)
VH: B1 VH
VL: B1 VL with A25I, A26S
notes: Dual-Ig
B12: H183/L072 VL A25P (antibody, name in Kabat numbering, V domains shown)
VH: B1 VH
VL: B1 VL with A25P, A26S
notes: Dual-Ig
B13: H183/L072 VL A25S (antibody, name in Kabat numbering, V domains shown)
VH: B1 VH
VL: B1 VL with A25S, A26S
notes: Dual-Ig
B14: H183/L072 VH Y59S (antibody, name in Kabat numbering, V domains shown)
VH: B1 VH with Y62S
VL: B1 VL with A26S
B15: H183/L072 VH Y58W (antibody, name in Kabat numbering, V domains shown)
VH: B1 VH with Y61W
VL: B1 VL with A26S
B16: H183/L072 VH Y94P (antibody, name in Kabat numbering, V domains shown)
VH: B1 VH with Y100P
VL: B1 VL with A26S
B17: H183/L072 VH Y58T (antibody, name in Kabat numbering, V domains shown)
VH: B1 VH with Y61T
VL: B1 VL with A26S
B18: H183/L072 VH Y59W (antibody, name in Kabat numbering, V domains shown)
VH: B1 VH with Y62W
VL: B1 VL with A26S
B19: H183/L072 VH Y97P (antibody, name in Kabat numbering, V domains shown)
VH: B1 VH with Y103P
VL: B1 VL with A26S
B20: H183/L072 VH Y59V (antibody, name in Kabat numbering, V domains shown)
VH: B1 VH with Y62V
VL: B1 VL with A26S
B21: H183/L072 VH Y59E (antibody, name in Kabat numbering, V domains shown)
VH: B1 VH with Y62E
VL: B1 VL with A26S
B22: H183/L072 VH Y59M (antibody, name in Kabat numbering, V domains shown)
VH: B1 VH with Y62M
VL: B1 VL with A26S
B23: H183/L072 VH Y97M (antibody, name in Kabat numbering, V domains shown)
VH: B1 VH with Y103M
VL: B1 VL with A26S
B24: H183/L072 VH Y59H (antibody, name in Kabat numbering, V domains shown)
VH: B1 VH with Y62H
VL: B1 VL with A26S
B25: H183/L072 VH Y59D (antibody, name in Kabat numbering, V domains shown)
VH: B1 VH with Y62D
VL: B1 VL with A26S
B26: H183/L072 VH Y94M (antibody, name in Kabat numbering, V domains shown)
VH: B1 VH with Y100M
VL: B1 VL with A26S
B27: H183/L072 VH Y97A (antibody, name in Kabat numbering, V domains shown)
VH: B1 VH with Y103A
VL: B1 VL with A26S
B28: H183/L072 VH Y59T (antibody, name in Kabat numbering, V domains shown)
VH: B1 VH with Y62T
VL: B1 VL with A26S
B29: H183/L072 VH Y59A (antibody, name in Kabat numbering, V domains shown)
VH: B1 VH with Y62A
VL: B1 VL with A26S
B30: H183/L072 VH Y59L (antibody, name in Kabat numbering, V domains shown)
VH: B1 VH with Y62L
VL: B1 VL with A26S
B31: H183/L072 VH Y97I (antibody, name in Kabat numbering, V domains shown)
VH: B1 VH with Y103I
VL: B1 VL with A26S
B32: H183/L072 VH Y59F (antibody, name in Kabat numbering, V domains shown)
VH: B1 VH with Y62F
VL: B1 VL with A26S
B33: H183/L072 VH Y59K (antibody, name in Kabat numbering, V domains shown)
VH: B1 VH with Y62K
VL: B1 VL with A26S
B34: H183/L072 VH Y97L (antibody, name in Kabat numbering, V domains shown)
VH: B1 VH with Y103L
VL: B1 VL with A26S
B35: H183/L072 VH Y94L (antibody, name in Kabat numbering, V domains shown)
VH: B1 VH with Y100L
VL: B1 VL with A26S
B36: H183/L072 VH Y58V (antibody, name in Kabat numbering, V domains shown)
VH: B1 VH with Y61V
VL: B1 VL with A26S
B37: H183/L072 VH Y59I (antibody, name in Kabat numbering, V domains shown)
VH: B1 VH with Y62I
VL: B1 VL with A26S
B38: H183/L072 VH Y59N (antibody, name in Kabat numbering, V domains shown)
VH: B1 VH with Y62N
VL: B1 VL with A26S
B39: H183/L072 VH Y59R (antibody, name in Kabat numbering, V domains shown)
VH: B1 VH with Y62R
VL: B1 VL with A26S
B40: H183/L072 VH Y94A (antibody, name in Kabat numbering, V domains shown)
VH: B1 VH with Y100A
VL: B1 VL with A26S
B41: H183/L072 VH Y59G (antibody, name in Kabat numbering, V domains shown)
VH: B1 VH with Y62G
VL: B1 VL with A26S
B42: H183/L072 VH Y59P (antibody, name in Kabat numbering, V domains shown)
VH: B1 VH with Y62P
VL: B1 VL with A26S
B43: H183/L072 VH Y94I (antibody, name in Kabat numbering, V domains shown)
VH: B1 VH with Y100I
VL: B1 VL with A26S
B44: H183/L072 VH Y59Q (antibody, name in Kabat numbering, V domains shown)
VH: B1 VH with Y62Q
VL: B1 VL with A26S

What follows are binders tested against T2, Human CD137 ECD (human) (assay: Biacore SPR, vs parent H183/L072).
T2 construct: entry includes C-terminal His-tag and biotin acceptor peptide; also called human CD137 extracellular domain; 4-1BB
T2 sequence (chain, as listed by the source limits assumed): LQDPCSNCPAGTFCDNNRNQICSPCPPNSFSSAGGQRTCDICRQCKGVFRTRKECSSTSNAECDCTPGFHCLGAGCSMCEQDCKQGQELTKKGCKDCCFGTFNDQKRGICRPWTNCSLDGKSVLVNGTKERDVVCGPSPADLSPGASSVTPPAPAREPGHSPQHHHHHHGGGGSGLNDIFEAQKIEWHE

fold change of affinity	Binder
0.8 fold	B1
0 fold	B2
0.7 fold	B3
0 fold	B4
0.2 fold	B5
0.1 fold	B6
0.5 fold	B7
0.1 fold	B8
0.1 fold	B9
0.7 fold	B10
0.2 fold	B11
1.4 fold	B12
1.1 fold	B13

Molecular target: T1, Human CD3eg linker
Assay: Biacore SPR, vs template H183/L072

fold change of affinity	Binder
1.1 fold	B14
0 fold	B15
0 fold	B16
0.2 fold	B17
0.6 fold	B18
0 fold	B19
1.2 fold	B20
1.1 fold	B21
1 fold	B22
0 fold	B23
1.4 fold	B24
1.1 fold	B25
0 fold	B26
0 fold	B27
1.2 fold	B28
1 fold	B29

fold change of affinity	Binder
1 fold	B30
0 fold	B31
0.6 fold	B32
1.3 fold	B33
0 fold	B34
0.8 fold	B35
0.3 fold	B36
0.9 fold	B37
1.2 fold	B38
1.3 fold	B39
0.4 fold	B40
1.1 fold	B41
0.7 fold	B42
0 fold	B43
1.1 fold	B44
